# Experiment: soluble on expression in E. coli; label from the status in PepcDB or PDB records
row,Sequence,soluble on expression in E. coli
1,MSAAEIDEGVFETTATIDNGSFGTRTIRFETGRLALQAAGAVVAYLDDDNMLLSATTASKNPKEHFDFFPLTVDVEERMYAAGRIPGSFFRREGRPSTDAILTCRLIDRPLRPSFVDGLRNEIQIVVTILSLDPGDLYDVLAINAASASTQLGGLPFSGPIGGVRVALIDGTWVGFPTVDQIERAVFDMVVAGRIVEGDVAIMMVEAEATENVVELVEGGAQAPTESVVAAGLEAAKPFIAALCTAQQELADAAGKSGKPTVDFPVFPDYGEDVYYSVSSVATDELAAALTIGGKAERDQRIDEIKTQVVQRLADTYEGREKEVGAALRALTKKLVRQRILTDHFRIDGRGITDIRALSAEVAVVPRAHGSALFERGETQILGVTTLDMIKMAQQIDSLGPETSKRYMHHYNFPPFSTGETGRVGSPKRREIGHGALAERALVPVLPSVEEFPYAIRQVSEALGSNGSTSMGSVCASTLALLNAGVPLKAPVAGIAMGLVSDDIQVEGAVDGVVERRFVTLTDILGAEDAFGDMDFKVAGTKDFVTALQLDTKLDGIPSQVLAGALEQAKDARLTILEVMAEAIDRPDEMSPYAPRVTTIKVPVDKIGEVIGPKGKVINAITEETGAQISIEDDGTVFVGATDGPSAQAAIDKINAIANPQLPTVGERFLGTVVKTTDFGAFVSLLPGRDGLVHISKLGKGKRIAKVEDVVNVGDKLRVEIADIDKRGKISLILVADEDSTAAATDAATVTS,not soluble
2,MKERIVGQSGELFCFGQMPVWKVENLPEVLLSGYSSEEGEWVCLNVLQGDVEVRAPDGSAEVWSADGGDCVFAPQQVFSVKPKTDDAEIRLSLYCAAADYFHKKYGMSATHSAVAAARDTVPAGRALDMGCGQGRNALFLGLKGFEVTAVDHNPAALANVAELAEAEGLNVRTLEYDLNAAALQGEFDYIVATVVLMFLMPQRVPDVIADMQAHTAAGGYNLIVSAMDTADFPCPMPFPFKFKEGELKDYYRDWELVEYKEELGSMHAKDENGNPIRFKFVTMLAKKPELEHHHHHH,not soluble
3,MGSDKIHHHHHHMTTPSETSPSRMNSTQAWVSYLSKVELPVLANTLRQINELTDSRNSTVNELANVILNDAQLTSQVLRLSNTVFYNQTRTQVSTVSRAITLIGFDAVKSMAISSLIVDSLLKRNDRPHLLRCLARAIHAAVQARCLMPKRTEHALEEVFIGALLMNIGELAFWSCETEQASELEERLRLEEPPVEAQKAVLHTTFTEITRGLVDAWSLGPFIKEVVAPGKANSMASSLVRNSVEMARVSENGWSGAEMDKVLEKLSDDIGETPAAIRDQLKVNAQEASKVAVSLGIPQVTALLPGNQESVPDAPAMDSDLQLQILRELTQTLAEKPDINEVCQLVIEGIHRAIGMQRVALLMTDRSGELLVPRKVGGRGTEEWREHFVIKKDGTGPLGPLLPHGTCAVYEPRKQTEGVPYDRWLGKVPALAGSLKAKGRLVGLFYADNAAAGYVPSEQQLAAFGHFIQNAQLCLTLMSARG,not soluble
4,MSAFPVHAAFEKDFLVQLVVVDLNDSMDQVAEKVAYHCVNRRVAPREGVMRVRKHRSTELFPRDMTIAESGLNPTEVIDVVFEE,soluble
5,MGNCLKSPTSDDISLLHESQSDRASFGEGTEPDQEPPPPYQEQVPVPVYHPTPSQTRLATQLTEEEQIRIAQRIGLIQHLPKGVYDPGRDGSEKKIRECVICMMDFVYGDPIRFLPCMHIYHLDCIDDWLMRSFTCPSCMEPVDAALLSSYETN,soluble
6,GPGSWIVSRGLNYSDPMNSVVARWVQHSRVRRLTTPISCFGLFIFTATCMQLPYDFRLLREASAGIDRQTALLKKSMDERYLAYREGKIAKEQLEAKEAEAFAKSMKVQ,soluble
7,MGSDKIHHHHHHMARDLQNHLLFEVATEVTNRVGGIYSVLKSKAPVTVAQYGDNYTLLGPLNKATYESEVEKLDWEDESIFPEELLPIQKTLMSMREKGVNFVYGNWLIEGAPRVILFELDSVRHFLNEWKADLWSLVGIPSPEHDHETNDAILLGYVVVWFLGEVSKLDSSHAIIGHFHEWLAGVALPLCRKKRIDVVTIFTTHATLLGRYLCAAGDVDFYNNLQYFDVDQEAGKRGIYHRYCIERAAAHTADVFTTVSQITALEAEHLLKRKPDGILPNGLNVVKFQAVHEFQNLHALKKDKINDFVRGHFHGCFDFDLDNTVYFFIAGRYEYKNKGADMFIESLARLNYRLKVSGSKKTVVAFLIMPAKTNSFTVEALKSQAIVKSLENTVNEVTASIGKRIFEHTMRYPHNGLESELPTNLDELLKSSEKVLLKKRVLALRRPYGELPPVVTHNMCDDANDPILNQIRHVRLFNDSSDRVKVIFHPEFLNANNPILGLDYDEFVRGCHLGVFPSYYEPWGYTPAECTVMGVPSITTNVSGFGAYMEDLIETDQAKDYGIYIVDRRFKSPDESVEQLADYMEEFVNKTRRQRINQRNRTERLSDLLDWKRMGLEYVKARQLGLRRAYPEQFKQLVGETISDANMNTLAGGKKFKIARPLSVPGSPKVRSNSTVYMTPGDLGTLQDANNADDYFNLSTNGAIDNDDDDNDTSAYYEDN,not soluble
8,MLKLQTLQALICIEEVGSLRAAAQLLHLSQPALSAAIQQLEDELKAPLLVRTKRGVSLTSFGQAFMKHARLIVTESRRAQEEIGQLRGRWEGHITFAASPAIALAALPLALASFAREFPDVTVNVRDGMYPAVSPQLRDGTLDFALTAAHKHDIDTDLEAQPLYVSDVVIVGQRQHPMANATRLAELQECRWAFSSAPRGPGAIIRNAFARYGLPEPKLGLVCESFLALPGVVAHSDLLTTMPRTLYERNAFKDQLCSIPLQDALPNPTIYVLRRHDLPVTPAAAGLIRWIQHHALQTGHHHHHH,soluble
9,MAAQPNAPESAWPVRELNSKVKSWIERLGHLWVEGQITQLNMKPSWKFSYITLRDPEAEASVQLTCATSLLHSLPSRLQDGDRVVVYGKPAFYEGRGSFSLWVTDIRPVGVGELLARIERLRQQLASEGLFDPALKKPLPFLPHTIGLITGRGSAAERDVLAVAHSRWPEVKFNVINTAVQGARAVPEIIEALQRLDADPSVDVIIIARGGGSVEDLLPFSEEALQRAVVAAHTPVVSAIGHEPDNPVLDNVADLRAATPTDAAKKVVPDVAAERQLIAELRSRSAAALRGWVHKERQQLAAVRSRPALADPVRAITLHREEIARSISSIRRDMRYMLSTERATVASLRQQVAALGPSATLARGYAVVQVVPRDGSAPEVVTTIGMSPPGSQLRIRVADGSITAAAMQTTPAD,not soluble
10,MTNVLWLQGGACSGNTMSFLNGEEPTACDLIANFGIKVLWHPSLGVELGNNLQTLLWDCVLGKTPLDILVFEGSVVNAPNGTGEWNRFADRPMKDWLIDLSQAAKFIVAVGDCATWGGIPAMSPNPSDSKGLQFLKRKEGGFLGKDFVSKAGLPVINIPGCPTHPDWITQILVAIATGRTDDIVLDELHRPQTFFNTYTQTGCTRNIHFAYKATTAEFGQRKGCLFYDLGCRGPMTHSSCNRILWNRISSKTRAGMPCLGCTEPEFPFFDLKPGTVFKTQTVMGVPKEIPPGVNHRDYAVLTVVAKDAAPKWADEDFFTV,not soluble
11,GSHMASFNGVSEAELLTKTLPDILTFNLDIVIIGINPGLMAAYKGHHYPGPGNHFWKCLFMSGLSEVQLNHMDDHTLPGKYGIGFTNMVERTTPGSKDLSSKEFREGGRILVQKLQKYQPRIAVFNGKCIYEIFSKEVFGVKVKNLEFGLQPHKIPDTETLCYVMPSSSARCAQFPRAQDKVHYYIKLKDLRDQLKGIERNMDV,soluble
12,MKLPLFPLPICLLPEGYTQLRIFEPRYKRLVAESLKSGDGFGLCMTSEEVNTLYPIGTLVHIIDFETLSDGMLGVSIEGKQRFILGDISVESDGLKRAQINLIDNWPAAPIHENEHYLSDMLQNILKEYPKHLQQYQAAQFDDIAWVCQRWLEILPIRSAEKYTCINALDHQLTLDLLRTVIKLEHHHHHH,soluble
13,AIASETISRVRQLTEKGAKMEGWDDCWKAGLTPWDRGSSLPVLCELCKEDALPKGYALVPGCGRGYDVLTLASESRVAIGLDCSEEAKKQAEQVRKFSVVDNCQLKEIEAEGF,soluble
14,MAELTETSPETPETTEAIRAVEAFLNALQNEDFDTVDAALGDDLVYENVGFSRIRGGRRTATLLRRMQGRVGFEVKIHRIGADGAAVLTERTDALIIGPLRVQFWVCGVFEVDDGRITLWRDYFDVYDMFKGLLRGLVALVVPSLKATL,soluble
15,MHMQLKGKTALVTGSTAGIGKAIATSLVAEGANVLINGRREENVNETIKEIRAQYPDAILQPVVADLGTEQGCQDVIEKYPKVDILINNLGIFEPVEYFDIPDEDWFKLFEVNIMSGVRLTRSYLKKMIERKEGRVIFIASEAAIMPSQEMAHYSATKTMQLSLSRSLAELTTGTNVTVNTIMPGSTLTEGVETMLNSLYPNEQLTIEEAEKRFMKENRPTSIIQRLIRPEEIAHLVTFLSSPLSSAINGSALRIDGGLVRSVF,not soluble
16,MKNNKVLVVVGPTAVGKTALGIDLAIKFNGEIISGDSQQVYQGLDIGTAKVTMAEQAQVPHHLIDVRKWTENFSVHDFVIEANQLIKEILDQGKVPIIVGGTGLYIQSLIEGYHLGGQENHEEMMKLREELSLLSDEELFAKVIKINPDISELNRRRAIRFLELQTFGSQDENLGSDYDFLLIGLNADRKVLYDRINQRVDQMMREGLLDEARTLYEQAPEVQAAKGIGYKEFFPYFSGDISLEEAVELVKRNSRRYAKRQLTWFKNRMSVEFEDVFSKNYPEPIFDKVTQFLNLEHHHHHH,not soluble
17,MAHHHHHHMAYPYNAYLGYTQPPTQYGQPPVVAGAHGHLPVTTPLPYNAQSAYGGAQPPMPTSTGVYAPSARHMNDNQELMEWFRAVDTDGSGAISVPELNAALSSAGVPFSLATTEKLLHMYDKNHSGEITFDEFKDLHHFILSMREGFRKRDSSGDGRLDSNEVRAALLSSGYQVSEQTFQALMRKFDRQRRGSLGFDDYVELSIFVCRVRNVFAFYDRERTGQVTFTFDTFIGGSVSIL,soluble
18,MPKKFASENPKVTAARDRKATAKKDEADKKAKATEDAKWVDNDKLNNRKMQRKEDDEKKREEALRRKEENRKLAEEEMSSLGNKKPAGAATQKVTRAHIHIRKEDEERINRELEEKRKQEAQKIEVAGDLLVENLNKLEVEEGEARNVDDALKVLGEEKALDDDKHPEKRMRAAYLAFEEARLPELKLNHPTFRLSQLKQILKKEWQKSPENPLNARLLALNS,soluble
19,ITEDEIRTLMEQGADEGVFDRAEQELVENIFRLDNRKASAVMTPRKDVVILDLEDGPERNRELLLGHPFSHFPVCRGDTDQVIGMLNAKTLLDRLLRGEALDFAAELSPPLYVPSTCSLMQLLEQFKQARSHSALVVDEYGELEGLVSINNVMEAIVGDLPAIDGEEDEIV,not soluble
20,MGSDKIHHHHHHMNAVPKDEMTPLERMAAFAAGKPYDRIPCSSFSGETACHFIGTTVSEYRHSAKLMARVETVTYKMFGHDGAGVGPGFLALAEAMGTELKYPEDNIPFVANPVLKNWDDFDKLEPADPHKDGKLPIYLEALAMIKDAIGDEVPIGSSVGGPFTTAALVRGTENFLKDLRRNPEMAHRLLQLVTNTTLNYIDAVMDMGCSVSIGDPTASGSLLSVKQFREFAKPYLSKLADRVIERTGKGPMLHICGDSTPIWSDMADTGAPTLSLDNVIDLAEAKKVVGERVCIMGNVKPIDTIMKGSHQQIEAEVKECLRKAYDSPKGFILAVGCQVPLGTTADNFMCFMNAARKYGRYPLNPDNFI,not soluble
21,MGSDKIHHHHHHMRSIADQYNVSTNSVSRRILALGKQTMPAYDGLPQTLCIDEFRSTSNQMSFITIDGQKHDIITILPGRQTNEIKQFFLNHYSLKNREQVTQVVMDLNAQYQTFIHYLFPNAKLIVDNFHLVQMALRALNQTRVQLMKKYHPNTPEYWVLKSYWRLYLMNYEALEKSQPQWFSHLRNRLTQEQLIWSGLNLSHEFENTYFTAHKLVEAFRSRDYAAFTATLDEVENVSPQLFTTIKTFIKNKKLIQNMTSSTLSNGPIEGVNRKIKQIKRTAYGYRNWKNFVFRIQIEFKIRLKKRNPVRK,not soluble

# Source: the DeepSol protein solubility set
